In patent publication US20100209425A1:
pKd: −log10 of the molar value.

Experiments:
[1] = molecular target: hen-egg lysozyme (HEL) from chicken egg white (chicken) (UniProt P00698); test: flow cytometry titration of biotinylated HEL on yeast-displayed D1.3 scFv; PBS with BSA
[2] = molecular target: hen-egg lysozyme (HEL) from chicken egg white (chicken) (UniProt P00698); test: flow cytometry titration of biotinylated HEL on yeast-displayed D1.3 scFv; PBS with n-octyl-beta-D-glucopyranoside
[3] = molecular target: hen-egg lysozyme (HEL) from chicken egg white (chicken) (UniProt P00698); test: flow cytometry titration of biotinylated HEL on yeast-displayed D1.3 scFv; PBS with Triton X-100
[4] = molecular target: hen-egg lysozyme (HEL) from chicken egg white (chicken) (UniProt P00698); test: yeast display immunoprecipitation with 5x10^7 yeast from RBE4 lysate holding 34 nM HEL, gel densitometry

Sequence of UniProt P00698 (P00698 19-147): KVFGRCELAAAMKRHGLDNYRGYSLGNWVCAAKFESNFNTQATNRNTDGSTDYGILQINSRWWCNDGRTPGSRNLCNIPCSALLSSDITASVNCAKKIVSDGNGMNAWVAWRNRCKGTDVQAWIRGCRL

Substance: anti-hen egg lysozyme D1.3 scFv displayed on yeast
- pKd [1]: 8.97
- pKd [2]: 8.58
- pKd [3]: 9.31
- percent of the theoretical immunoprecipitation yield [4]: 70%
